In IntAct's records for PubMed 30126976:

B1: Ribosomal protein S6 kinase alpha-1 (Homo sapiens), Q15418 (parent)
chain: MPLAQLKEPWPLMELVPLDPENGQTSGEEAGLQPSKDEGVLKEISITHHVKAGSEKADPSHFELLKVLGQGSFGKVFLVRKVTRPDSGHLYAMKVLKKATLKVRDRVRTKMERDILADVNHPFVVKLHYAFQTEGKLYLILDFLRGGDLFTRLSKEVMFTEEDVKFYLAELALGLDHLHSLGIIYRDLKPENILLDEEGHIKLTDFGLSKEAIDHEKKAYSFCGTVEYMAPEVVNRQGHSHSADWWSYGVLMFEMLTGSLPFQGKDRKETMTLILKAKLGMPQFLSTEAQSLLRALFKRNPANRLGSGPDGAEEIKRHVFYSTIDWNKLYRREIKPPFKPAVAQPDDTFYFDTEFTSRTPKDSPGIPPSAGAHQLFRGFSFVATGLMEDDGKPRAPQAPLHSVVQQLHGKNLVFSDGYVVKETIGVGSYSECKRCVHKATNMEYAVKVIDKSKRDPSEEIEILLRYGQHPNIITLKDVYDDGKHVYLVTELMRGGELLDKILRQKFFSEREASFVLHTIGKTVEYLHSQGVVHRDLKPSNILYVDESGNPECLRICDFGFAKQLRAENGLLMTPCYTANFVAPEVLKRQGYDEGCDIWSLGILLYTMLAGYTPFANGPSDTPEEILTRIGSGKFTLSGGNWNTVSETAKDLVSKMLHVDPHQRLTAKQVLQHPWVTQKDKLPQSQLSHQDLQLVKGAMAATYSALNSSKPTPQLKPIESSILAQRRVRKLPSTTL
B2: FERM and PDZ domain-containing protein 1 (Homo sapiens), Q5SYB0 (parent)
chain: MEELETSLFQTRKAHRIEQMVARWLRRSRDSSARAKVAAADGPARNPTQTLIPVRHTVKIDKDTLLQDYGFHISESLPLTVVAVTAGGSAHGKLFPGDQILQMNNEPAEDLSWERAVDILREAEDSLSITVVRCTSGVPKSSFLTEEKRARLKTNPVKVHFAEEVLISGHSQGNSLLCMPNVLKLYLENGQTKAFKFEANTTVKDIILTVKEKLSIRSIEYFALALEEQYSISRLHLLHEEELIQQVVEREESHDYRCLFRVCFVPKDPLDLLKEDPVAFEYLYLQSCSDVLQERFAVEMKCSSALRLAALHIQERIYACAQPQKISLKYIEKDWGIENFISPTLLRNMKGKDIKKAISFHMKRNQNLLEPRQKQLISAAQLRLNYLQILGELKTYGGRIFNATLMLQDRESYIALLVGAKYGISQVINSKLNIMSTLAEFANISRVELTEESEKVSVVKVYLQDVKVLTLLLESNSAKDLACLIAGYYRLLVDPVTSIFLWPGNKQQAHRVSAEEGYESRACSDSEESSEVDCVLEPLSDRRLVKLAPCRSLIKEEQPPGNSPTPEVARRGPSTCGASSTTDSAESEASDSANTESRGYRTSGSSESMDALEEDDLDTCSSSRSTFFHFGSPGLAESIDSDSQEERSGIETSGFLCLLDLAQRANPQCQKTEFSESAALETFGWAPELSTVRLDPRLYEGSHADYYSLCSSVSPASYLSDSSESTASRQGGAPPAWGQQGWTEAQPSSMLEPLALHPPLAFEDGSSDEEYYDAADKLTPPGPPSGPRDVSTAEPSATSLQNKASTSSPENSLPCGPDGRQPSRRGGVKKYAKTLRKRRSFLQTDYTSQVSFPLVPSASLESVDDVCYYDREPYLALGAPSPTVSSLQDMQGEPGLLETKALGLLAPLRETKSTNPASRVMEMEPETMETKSVIDSRVSSISAIRFRIDPNNKENSGVVPAASSSASTPHCSNPGSSGPDTAQARPSQILPLSQDLDGIAPKEPTIEHGDSSFSLSSGDPNPDRACLASNPGLNNVSQGDTLELQLEPHVQLEMGLESFCTNHIQETAPKYTEPLLSPRDEPRSDECGINPGEKIASIPTKEEPQGQLSLERDREVTNKNGTNVFQEESRKDSGDSPGDVSNNVSQTLDISSPAGKIVTSLSLDAPVTGTEQIPPHPPRDPQGQSREPPGQGCQAQEQKLFVELDLDPDFFLGKQTVSPAVPPEGIKAEAPNHVTGQDIAPRDSPEWVCFNPEPSLPEPLPCPQEDPHLETSNHCLLSEGKSDSSSICLSAEKSFLCFAPESHPEVSASLRVATSLGFAGMNEMVAPRIGMDQCSCQFSYATCFRGPQPETEEEDRDLEAHPMAPLTSPPSAGSPVVLPWRPARAHSCTTAPLSRKSHIWPEYCSRALRQLKATPASTPEGFIQLMESLLELQDILETSWGVGNKHPPEKCTWHFTESRSRLCMGSQKLLSSCRHVIRMDQSPEEMQGAVRDTFQHLVQLAGLCFQFTDCSRCSARHREAAGNLRDVVYTYHQFIEAAKSTCERGYHDLSVKLLARQCTALTAAVFCLTQKFRASTAL
B3: Olfactory receptor 5F1 (Homo sapiens), O95221 (parent)
chain: MTRKNYTSLTEFVLLGLADTLELQIILFLFFLVIYTLTVLGNLGMILLIRIDSQLHTPMYFFLANLSFVDVCNSTTITPKMLADLLSEKKTISFAGCFLQMYFFISLATTECILFGLMAYDRYAAICRPLLYSLIMSRTVYLKMAAGAFAAGLLNFMVNTSHVSSLSFCDSNVIHHFFCDSPPLFKLSCSDTILKESISSILAGVNIVGTLLVILSSYSYVLFSIFSMHSGEGRHRAFSTCASHLTAIILFYATCIYTYLRPSSSYSLNQDKVASVFYTVVIPMLNPLIYSLRSKEVKKALANVISRKRTSSFL
B4: Cysteinyl leukotriene receptor 2 (Homo sapiens), Q9NS75 (parent)
chain: MERKFMSLQPSISVSEMEPNGTFSNNNSRNCTIENFKREFFPIVYLIIFFWGVLGNGLSIYVFLQPYKKSTSVNVFMLNLAISDLLFISTLPFRADYYLRGSNWIFGDLACRIMSYSLYVNMYSSIYFLTVLSVVRFLAMVHPFRLLHVTSIRSAWILCGIIWILIMASSIMLLDSGSEQNGSVTSCLELNLYKIAKLQTMNYIALVVGCLLPFFTLSICYLLIIRVLLKVEVPESGLRVSHRKALTTIIITLIIFFLCFLPYHTLRTVHLTTWKVGLCKDRLHKALVITLALAAANACFNPLLYYFAGENFKDRLKSALRKGHPQKAKTKCVFPVSVWLRKETRV
B5: Inward rectifier potassium channel 4 (Homo sapiens), P48050 (parent)
chain: MHGHSRNGQAHVPRRKRRNRFVKKNGQCNVYFANLSNKSQRYMADIFTTCVDTRWRYMLMIFSAAFLVSWLFFGLLFWCIAFFHGDLEASPGVPAAGGPAAGGGGAAPVAPKPCIMHVNGFLGAFLFSVETQTTIGYGFRCVTEECPLAVIAVVVQSIVGCVIDSFMIGTIMAKMARPKKRAQTLLFSHHAVISVRDGKLCLMWRVGNLRKSHIVEAHVRAQLIKPYMTQEGEYLPLDQRDLNVGYDIGLDRIFLVSPIIIVHEIDEDSPLYGMGKEELESEDFEIVVILEGMVEATAMTTQARSSYLASEILWGHRFEPVVFEEKSHYKVDYSRFHKTYEVAGTPCCSARELQESKITVLPAPPPPPSAFCYENELALMSQEEEEMEEEAAAAAAVAAGLGLEAGSKEEAGIIRMLEFGSHLDLERMQASLPLDNISYRRESAI

Variants of: B1
Details: with scrib_human SCRIB
Target sequence in this assay (Q14160 whole entry): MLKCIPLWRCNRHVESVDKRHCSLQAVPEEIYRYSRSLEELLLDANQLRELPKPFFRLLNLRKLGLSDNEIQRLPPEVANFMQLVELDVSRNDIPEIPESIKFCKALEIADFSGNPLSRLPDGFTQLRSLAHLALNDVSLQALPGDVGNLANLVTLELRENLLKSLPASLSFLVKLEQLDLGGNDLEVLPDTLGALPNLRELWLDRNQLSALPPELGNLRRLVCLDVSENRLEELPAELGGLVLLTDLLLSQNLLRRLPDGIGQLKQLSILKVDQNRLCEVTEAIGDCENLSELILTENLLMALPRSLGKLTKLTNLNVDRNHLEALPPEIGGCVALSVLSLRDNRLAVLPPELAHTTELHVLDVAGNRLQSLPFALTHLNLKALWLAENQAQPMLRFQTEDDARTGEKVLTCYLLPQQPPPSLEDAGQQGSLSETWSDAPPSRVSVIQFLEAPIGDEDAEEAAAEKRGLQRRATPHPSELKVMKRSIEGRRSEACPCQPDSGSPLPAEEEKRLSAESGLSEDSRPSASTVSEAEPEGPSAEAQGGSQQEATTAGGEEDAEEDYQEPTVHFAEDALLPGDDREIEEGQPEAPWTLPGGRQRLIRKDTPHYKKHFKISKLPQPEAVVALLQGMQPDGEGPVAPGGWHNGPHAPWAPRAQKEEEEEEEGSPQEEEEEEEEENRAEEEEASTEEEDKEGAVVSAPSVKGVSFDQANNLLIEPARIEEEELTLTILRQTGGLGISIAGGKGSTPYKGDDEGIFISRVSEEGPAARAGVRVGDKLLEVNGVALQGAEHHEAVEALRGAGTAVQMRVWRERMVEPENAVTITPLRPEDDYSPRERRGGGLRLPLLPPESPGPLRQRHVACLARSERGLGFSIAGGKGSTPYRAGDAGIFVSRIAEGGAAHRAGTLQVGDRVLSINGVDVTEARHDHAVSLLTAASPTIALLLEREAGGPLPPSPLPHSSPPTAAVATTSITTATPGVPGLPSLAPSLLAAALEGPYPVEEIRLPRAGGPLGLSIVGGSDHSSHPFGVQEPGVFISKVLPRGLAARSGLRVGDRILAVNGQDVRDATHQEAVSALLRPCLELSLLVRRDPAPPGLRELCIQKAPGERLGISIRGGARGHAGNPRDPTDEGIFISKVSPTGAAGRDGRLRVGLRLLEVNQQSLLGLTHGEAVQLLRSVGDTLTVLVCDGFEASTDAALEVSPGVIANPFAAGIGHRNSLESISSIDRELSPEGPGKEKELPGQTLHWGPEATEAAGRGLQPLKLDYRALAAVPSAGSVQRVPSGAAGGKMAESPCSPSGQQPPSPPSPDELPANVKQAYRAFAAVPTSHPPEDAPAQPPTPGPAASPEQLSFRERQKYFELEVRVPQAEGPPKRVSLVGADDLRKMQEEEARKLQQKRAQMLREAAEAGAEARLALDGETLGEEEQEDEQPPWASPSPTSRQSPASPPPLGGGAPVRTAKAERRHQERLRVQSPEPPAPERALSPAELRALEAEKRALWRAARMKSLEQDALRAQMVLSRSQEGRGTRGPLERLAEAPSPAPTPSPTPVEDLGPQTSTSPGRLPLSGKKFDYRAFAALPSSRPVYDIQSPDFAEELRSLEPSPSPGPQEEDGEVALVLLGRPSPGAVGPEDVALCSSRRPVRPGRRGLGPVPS

Q: With S732E;T734E as the variant, how does the “effect of a mutation on the interaction” value read?
A: The value was “increasing interaction strength”.

Q: With S732E as the variant, how does the “effect of a mutation on the interaction” value read?
A: The value was “increasing interaction strength”.

Variants of: B2
Details: with scrib_human SCRIB
Target sequence in this assay (Q14160 whole entry): as above

Q: How did the “effect of a mutation on the interaction” value turn out when S1575E was run?
A: Its value is “increasing interaction strength”.

Variants of: B3
Details: with scrib_human SCRIB
Target sequence in this assay (Q14160 whole entry): as above

Q: How did the “effect of a mutation on the interaction” value turn out when S311E was run?
A: The value was “causing an interaction”.

Variants of: B4
Details: with scrib_human SCRIB
Target sequence in this assay (Q14160 whole entry): as above

Q: How did the “effect of a mutation on the interaction” value turn out when T344E was run?
A: Its value is “disrupting interaction strength”.

Variants of: B4
Details: with dlg1_human DLG1, Q12959
dlg1_human DLG1, Q12959, sequence (Q12959 whole entry, looked up): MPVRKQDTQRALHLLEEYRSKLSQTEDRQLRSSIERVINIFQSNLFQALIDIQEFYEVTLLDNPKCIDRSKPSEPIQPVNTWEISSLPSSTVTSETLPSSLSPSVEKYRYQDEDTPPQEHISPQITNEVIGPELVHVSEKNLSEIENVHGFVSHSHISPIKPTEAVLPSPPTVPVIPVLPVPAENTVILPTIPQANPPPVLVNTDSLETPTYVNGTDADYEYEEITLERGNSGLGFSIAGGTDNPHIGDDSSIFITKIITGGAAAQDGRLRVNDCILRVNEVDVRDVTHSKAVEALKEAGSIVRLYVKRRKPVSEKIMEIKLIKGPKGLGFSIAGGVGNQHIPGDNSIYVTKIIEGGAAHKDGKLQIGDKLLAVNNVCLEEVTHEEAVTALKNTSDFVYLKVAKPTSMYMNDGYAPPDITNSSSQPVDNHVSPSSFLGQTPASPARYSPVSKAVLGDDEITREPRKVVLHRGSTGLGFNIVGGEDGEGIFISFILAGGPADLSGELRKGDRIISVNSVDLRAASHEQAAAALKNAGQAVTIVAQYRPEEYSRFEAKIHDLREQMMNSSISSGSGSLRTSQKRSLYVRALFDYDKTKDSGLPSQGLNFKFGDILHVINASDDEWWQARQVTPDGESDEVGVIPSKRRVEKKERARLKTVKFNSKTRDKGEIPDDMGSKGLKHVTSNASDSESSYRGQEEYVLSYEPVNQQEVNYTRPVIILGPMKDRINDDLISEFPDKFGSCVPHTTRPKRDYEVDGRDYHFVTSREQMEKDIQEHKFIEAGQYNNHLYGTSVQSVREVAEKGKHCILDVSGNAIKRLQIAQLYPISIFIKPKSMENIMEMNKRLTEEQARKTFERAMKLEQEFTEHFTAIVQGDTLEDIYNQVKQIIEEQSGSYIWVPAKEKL

Q: Which “effect of a mutation on the interaction” value does the source give for T344E here?
A: The value was “disrupting interaction strength”.

Variants of: B5
Details: with scrib_human SCRIB
Target sequence in this assay (Q14160 whole entry): as the sequence (Q14160 whole entry) above

Q: With S443E as the variant, how does the “effect of a mutation on the interaction” value read?
A: The value was “disrupting interaction strength”.
